B1: ADI-18889 (antibody, V domains shown)
VH: QVQLQQWGAGLWKPSQTLSLTCAVHGGSLSGYSWSWIRQSPGRGLEWIGEVNRRGTTNYNPSLKGRVSISWDTSKNQVSLSLRSVTAADTATYYCAGTNVGFVNTHNDYYFGMDVWGQGTTVTVSS
VL: DIVMTQSPSSLSASVGDRVTITCRASQSISNYVNWYQKKTGQVPKLLIYGASNLESGVPSRFSGGGSGTDFTLTISSLQPEDFATYYCQQSYSVPLTFGGGTKVEIK
notes: full-length IgG from yeast; also called Antibody Number 244; Ab # 244
B2: ADI-18960 (antibody, V domains shown)
VH: QVQLQESGPGLVKPSETLSLTCSVSGGSITNVNYYWGWIRQPPGKGLEWIGSIYYNGNTYYNPSLQSRVTMSVDTSKNHFSLRLTSVTAADTAVYFCAREGPNWELLNAFDIWGQGTTVTVSS
VL: DIQVTQPPSVSVAPGQTARITCGGNNIGSKNVHWYQQKPGRAPVLVVYEDTHRPSGIPERFSGSNSGNTATLTISRVEAGDEADYYCQVWDTSSDHVVFGGGTKLTVL
notes: full-length IgG from yeast; also called Antibody Number 311; Ab # 311
B3: ADI-18900 (antibody, V domains shown)
VH: EVQLLESGGALVEPGGSLRLSCAASGFSFNTYSMNWVRQGPGKGLEWVATISTSTAGSYYADSVRGRFTISRDNSKNTLYLQMNSLRVEDTAVYYCARDQEVELIDDAFDFWGRGTMVTVSS
VL: DIVMTQTHSSLSASVGDRVTITCRASQSISIWVAWYQQKPGKAPNLLIYKASSLQSGVPSRFSGSGSGTEFTLTISSLQPDDSATYYCQQYYTYYSFGQGTKLEIK
notes: full-length IgG from yeast
B4: ADI-18971 (antibody, V domains shown)
VH: EVQLVESGGGLVQRGGSLRLSCAASGFTFSGNAMSWVRQAPGKGLEWVASIGESATSAYYADSVKGRFTISRDDSKNTLYLQMNSLRPEDTAVYFCAKDRVGWFGEFDAFDFWGQGTMVTVSS
VL: SYELTQPPSVSVAPGKTATISCGGNNIGGHKVHWYQQRPGQAPVLVIYYDNVRPSGIPERFSGSNSGNTATLTISRVEAGDEADFYCQVWDSRSEHVIFGGGTKVTVL
notes: full-length IgG from yeast; also called Antibody Number 319; Ab # 319
B5: ADI-18877 (antibody, V domains shown)
VH: QVQLVQSGTEVKKPGASVKVSCKAAGYTFSNYGVSWVRQAPGQGLEWMGWISAYNGNTKFAQKVQGRLTMTTDTSTSTAYMELRNLRSDDTAVYYCARESGATAAAMFDYWGQGTLVTVSS
VL: ETTLTQSPLSLPVTLGQPASISCRSSQSLEYSDGNIYLSWFQQRPGQSPRRLIYKVSHRDSGVPDRFSGSGSGTDFTLKIARVEAEDVAVYYCMQAIHWPRTFGQGTKVDIK
notes: full-length IgG from yeast; also called Antibody Number 234; Ab # 234
B6: ADI-18898 (antibody, V domains shown)
VH: QVQLVQSGTEVKKPGASVKVSCKAAGYTFSNYGVSWVRQAPGQGLEWMGWISAYNGNTKFAQKVQGRLTMTTDTSTSTAYMELRNLRSDDTAVYYCARESGATAAAMFDYWGQGTLVTVSS
VL: EIVLTQSPLSLPVTLGQPASISCRSSQSLEYSDGNIYLSWFQQRPGQSPRRLIYKVSHRDSGVPDRFSGSGSGTDFTLKIARVEAEDVAVYYCMQAIHWPRTFGQGTKVEIK
notes: full-length IgG from yeast
B7: ADI-18890 (antibody, V domains shown)
VH: QVQLVQSGAEVKRPGSSVKVSCKASGGTFRGYHISWLRQAPGQGLEWLGGITHLFGTVSYAPKFQGRVTITADASTGTLYMVLNSLKPEDTAIYYCARDAYEVWTGSYLPPFDYWGQGTLVTVSS
VL: ETTLTQSPGTLSLSPGERATLSCRASQTVTSNYLAWYQQKPGQAPRLLIYDALTRATGIPDRFSGSGSGTDFTLTISRLEPEDFALYYCQQYGSSFLTFGGGTKVDIK
notes: full-length IgG from yeast
B8: ADI-18891 (antibody, V domains shown)
VH: QVQLQESGAEVKKPGSSVKVSCKASGGAFSSYAISWVRQAPGQGLEWLGGITHLFGTVSYAPKFQGRVTITADASTGTLYMVLNSLKPEDTAIYYCARDAYEVWTGSYLPPFDYWGQGTLVTVSS
VL: EIVLTQSPGTLSLSPGERATLSCRASQTVTSNYLAWYQQKPGQAPRLLIYDALTRATGIPDRFSGSGSGTDFTLTISRLEPEDFALYYCQQYGSSFLTFGGGTKLEIK
notes: full-length IgG from yeast; also called Antibody Number 246; Ab # 246
B9: ADI-18974 (antibody, V domains shown)
VH: QVQLVQSGPEVKKPGASVRVSCEASGYPFSNYGITWVRQAPGQGLEWMGWISAYNGNRDYLQKFQGRLTMTIDTSTRTAHMELRRLTSDDTAVYWCARDTPATAAPLLDYWGQGTLVTVSS
VL: DIVMTQSPLSLAVTLGQPASISCRSSQSLEFTDGNTYLNWFQQRPGQSPRRLIYKVSNRDSGVPDRFSGSGSGTGFTLKISRVEAEDVGVYYCMQGIFRPGTFGQGTKVEIK
notes: full-length IgG from yeast
B10: ADI-18893 (antibody, V domains shown)
VH: EVQLLESGGGLVKPGGSLRLSCVASGFTFSSYNINWVRQAPGKGLEWVSSISGGSNYIDYADSVKGRFTISRDNAKNSLYLQMNNLRAEDTAVYYCARLGYGGNPELDYWGQGTLVTVSS
VL: QSVLTQPPSVSGAPGQRVTISCTGSSSNIGAGYDVHWYQQRPGTAPKLLIYANNNRPSGVPDRFSGSKSGTSASLAITGLQAEDEADYYCQSYDLSLSSSRVFGGGTKLTVL
notes: full-length IgG from yeast; also called Antibody Number 248; Ab # 248
B11: ADI-18883 (antibody, V domains shown)
VH: QVQLVQSGPEVKKPGSSVTVSCKASGGTFSNYGIAWVRQAPGQGLEWMGSTIPILGTASYRQSLKDRVTITADASTTTVYMEMTRLRTEDTAVYFCARVPESLVASNAYAVWGQGTVVTVSS
VL: DIQMTQSPSSVSASVGDRVTITCRASQDISTWLAWYQQRPGKAPKLLIYTASSLQSGVPSRFSGSGSGTEFTLTISSLQPEDFATYYCQQGTSFPFTFGPGTKLEIK
notes: full-length IgG from yeast
B12: ADI-18966 (antibody, V domains shown)
VH: QVQLVQSGGGVVQPGRSLRLSCAASGFTFRNYGMHWVRQAPGKGLEWVAAASYDGSSKYFADAVKGRFSISRDNTKNTLSLQMTSLRAEDTAVYYCARDPGVGSYYNVVGMDVWGQGTTVTVSS
VL: DIRLTQSPLSLPVTLGQPASISCRSSQSLVYSDGNTYLNWFQQRPGQSPRRLIYRVSHRDSGVPDRFSGSESGTDFTLKISRVEAEDVGVYYCMQGTHWPPTFGQGTKVEIK
notes: full-length IgG from yeast
B13: ADI-18958 (antibody, V domains shown)
VH: QVQLQESGAEVKMRGASVKVSCKASGYTFSHYGISWVRQAPGQGLEWMGFISAYNHNTKYAQTVQGRVTLSTDTSTSTAYMELRSLRPDDTAMYYCAREPPSDDAARLFDYWGQGTLVTVSS
VL: ETTLTQSPRSLPVTLGQPASISCRSSQSLVYSEGNTYLSWFQQRPGQSPRRLIYKVSNRDSGVPDRFSGSGSGTDFTLKISRVEAEDVGVYYCMQGTQWPVTFGQGTKVEIK
notes: full-length IgG from yeast
B14: ADI-18969 (antibody, V domains shown)
VH: QVQLVQSGPEVKKPGASVTVSCKASGYTFSHYGISWVRQAPGQGLEWMGWISAYHGQTNYAQNFQGRVTMTTDTSSNTAYMEVRSLRSDDTAVYFCARDVFSKTAARIFDYWGQGTLVTVSS
VL: EIVLTQSPLSLPVTLGQPASISCRSSQSLEYSDGNTYLSWFQQRPGQSPRRLIYKVSNRDSGVPDRFSGSQSGTDFTLKISRVEAEDVGVYYCMQATDWPVTFGQGTKLEIK
notes: full-length IgG from yeast; also called Antibody Number 317; Ab # 317
B15: ADI-18892 (antibody, V domains shown)
VH: QVQLVQSGAEVKEPGASVRVSCKASGYTFTSYGISWVRQAPGQGLEWMGWISAYNGNTNYAQKFQGRVTVTTDTSTSAAYMELRSLRSDDTAIYYCARDSFSLTGAGFPDYWGQGTLVTVSS
VL: EIVMTQSPLSLPVTLGQPASISCRSSQSLVYSDGNTYLNWFQQRPGQSPRRLIYKVSNRDSGVPDRFSGSGSDTDFTLKISRVEAEDVGVYYCMQATQWPRTFGQGTKVEIK
notes: full-length IgG from yeast
B16: ADI-18975 (antibody, V domains shown)
VH: QVQLVQSGAEVKKPGASVKVSCKASGYTFVHYGISWVRQAPGQGLEWMGWISAYNGNTNSALKFQDRVTMTTDPSTSTAYMELRSLRSDDTAIYYCARDSGCCSGSTSDVWGKGTTVTVSS
VL: DIVMTQSPLSSPVTLGQPASISCRSSQSLVHSDGNTYLSWLHQRPGQPPRLLIYKISHRFSGVPDRFTGSGAGTDFTLKISRVEAEDVGVYYCMQATEFPPMYTFGQGTKVEIK
notes: full-length IgG from yeast; also called Antibody Number 323; Ab # 323
B17: ADI-18977 (antibody, V domains shown)
VH: QVQLVQSGTEVKKPGASVKISCKTSGYTFTNNVIQWVRQAPGQRLEWMGWISAGNGYTKYSDKFQDRVTITRDTSASTAYMEVSSLTSEDTAMYYCARQVSTSGWHATSHRFAPWGQGTLVTVSS
VL: DIQMTQSPSSLSASVGDRVTITCQASQGISRYLNWYQQKPGKAPNLLIYDASNLETGVPSRFSGSGSGTHFTLTISSLQPEDIATYYCQQYDNLPLTFGGGTKVEIK
notes: full-length IgG from yeast

Legend:
[1] = molecular target: T1, RSV F subtype B, furin-cleaved ectodomain stabilized in the prefusion conformation (DS-Cav1) (Respiratory syncytial virus subtype B); assay: BLI, IgG on AHQ sensor, 100 nM antigen
T1 construct: extracellular domain; Trimeric soluble antigen; also called Prefusion subtype B

[2] = molecular target: T2, RSV F subtype A, furin-cleaved ectodomain stabilized in the prefusion conformation (DS-Cav1) (Respiratory syncytial virus subtype A, UniProt P03420 26-524); assay: BLI, IgG on AHQ sensor, 100 nM antigen
T2 construct: extracellular domain; Trimeric soluble antigen; also called Prefusion subtype A

[3] = molecular target: RSV F protein of subtype A (strain A2) on recombinant mKate-RSV virus (Respiratory syncytial virus subtype A …, UniProt P03420 26-574); assay: cell-based or functional assay
[4] = molecular target: RSV F protein of subtype B (18537) on recombinant mKate-RSV virus (Respiratory syncytial virus subtype B …, UniProt P13843 26-574); assay: cell-based or functional assay

Binder | Kd [1] [nM] | Kd [2] [nM] | Neut IC50 (µg/ml) subtype A [3] [µg/mL] | Neut IC50 (µg/ml) subtype B [4] [µg/mL]
B1 | 0.587 | 0.554 | 0.04 | 0.019
B2 | 0.183 | 0.178 | 0.034 | 0.107
B3 | 0.331 | 1.19 | 0.035 | 0.059
B4 | 0.168 | 0.157 | 0.039 | 0.114
B5 | 0.383 | 0.303 | 0.41 | 0.13
B6 | 0.325 | 0.305 | 0.03 | 0.097
B7 | 0.458 | 0.489 | 0.041 | 0.041
B8 | 0.513 | 0.534 | 0.012 | 0.026
B9 | 0.29 | 0.253 | 0.03 | 0.105
B10 | 0.278 | 0.245 | 0.123 | 0.182
B11 | 0.566 | 0.431 | 0.041 | 0.05
B12 | 0.562 | 0.578 | 0.044 | 0.13
B13 | 0.302 | 0.286 | 0.587 | 3.36
B14 | 0.297 | 0.303 | 0.035 | 0.187
B15 | 0.253 | 0.217 | 0.018 | 0.117
B16 | 0.298 | 0.267 | 0.037 | 0.174
B17 | 0.966 | 0.786 | 0.108 | 0.117

— patent publication US20200223906A1 (Adimab, published 2020)
